From patent publication US20210388087A1 (Chugai, published 2021)

T1: Human CD3eg linker (human)
T1 construct: Single chain: epsilon and gamma subunits of human CD3 joined by a 29-mer linker, Flag-tag at the C-terminus; also called recombinant human CD3
T1 chain: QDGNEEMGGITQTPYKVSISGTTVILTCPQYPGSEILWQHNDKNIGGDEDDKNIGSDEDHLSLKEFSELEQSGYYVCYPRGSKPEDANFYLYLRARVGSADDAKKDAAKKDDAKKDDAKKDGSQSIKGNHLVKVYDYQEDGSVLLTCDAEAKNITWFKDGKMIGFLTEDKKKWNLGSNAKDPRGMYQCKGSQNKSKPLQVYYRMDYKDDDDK


Target: T1, Human CD3eg linker
Assay: Biacore SPR, vs template H183/L072

fold change of affinity [fold]	Binder
1.1	H183/L072 VH T100bL (antibody, name in Kabat numbering, V domains shown) VH: QVQLVESGGGLVQPGRSLRLSCAASGFTFSNAWMHWVRQAPGKGLEWVAQIKDKGNAYAAYYAPSVKGRFTISRDDSKNSIYLQMNSLKTEDTAVYYCHYVHYASASLVLPAFGVDAWGQGTTVTVSS VL: DIVMTQSPLSLPVTPGEPASISCQASQELVHMNRNTYLHWYQQKPGQAPRLLIYKVSNRFPGVPDRFSGSGSGTDFTLKISRVEAEDVGVYYCAQGTSVPFTFGQGTKLEIK
1	H183/L072 VH T100bM (antibody, name in Kabat numbering, V domains shown) VH: QVQLVESGGGLVQPGRSLRLSCAASGFTFSNAWMHWVRQAPGKGLEWVAQIKDKGNAYAAYYAPSVKGRFTISRDDSKNSIYLQMNSLKTEDTAVYYCHYVHYASASMVLPAFGVDAWGQGTTVTVSS VL: DIVMTQSPLSLPVTPGEPASISCQASQELVHMNRNTYLHWYQQKPGQAPRLLIYKVSNRFPGVPDRFSGSGSGTDFTLKISRVEAEDVGVYYCAQGTSVPFTFGQGTKLEIK
1.1	H183/L072 VH T100bP (antibody, name in Kabat numbering, V domains shown) VH: QVQLVESGGGLVQPGRSLRLSCAASGFTFSNAWMHWVRQAPGKGLEWVAQIKDKGNAYAAYYAPSVKGRFTISRDDSKNSIYLQMNSLKTEDTAVYYCHYVHYASASPVLPAFGVDAWGQGTTVTVSS VL: DIVMTQSPLSLPVTPGEPASISCQASQELVHMNRNTYLHWYQQKPGQAPRLLIYKVSNRFPGVPDRFSGSGSGTDFTLKISRVEAEDVGVYYCAQGTSVPFTFGQGTKLEIK
1.4	H183/L072 VH V63M (antibody, name in Kabat numbering, V domains shown) VH: QVQLVESGGGLVQPGRSLRLSCAASGFTFSNAWMHWVRQAPGKGLEWVAQIKDKGNAYAAYYAPSMKGRFTISRDDSKNSIYLQMNSLKTEDTAVYYCHYVHYASASTVLPAFGVDAWGQGTTVTVSS VL: DIVMTQSPLSLPVTPGEPASISCQASQELVHMNRNTYLHWYQQKPGQAPRLLIYKVSNRFPGVPDRFSGSGSGTDFTLKISRVEAEDVGVYYCAQGTSVPFTFGQGTKLEIK
1.1	H183/L072 VH V63A (antibody, name in Kabat numbering, V domains shown) VH: QVQLVESGGGLVQPGRSLRLSCAASGFTFSNAWMHWVRQAPGKGLEWVAQIKDKGNAYAAYYAPSAKGRFTISRDDSKNSIYLQMNSLKTEDTAVYYCHYVHYASASTVLPAFGVDAWGQGTTVTVSS VL: DIVMTQSPLSLPVTPGEPASISCQASQELVHMNRNTYLHWYQQKPGQAPRLLIYKVSNRFPGVPDRFSGSGSGTDFTLKISRVEAEDVGVYYCAQGTSVPFTFGQGTKLEIK
1.4	H183/L072 VH V63I (antibody, name in Kabat numbering, V domains shown) VH: QVQLVESGGGLVQPGRSLRLSCAASGFTFSNAWMHWVRQAPGKGLEWVAQIKDKGNAYAAYYAPSIKGRFTISRDDSKNSIYLQMNSLKTEDTAVYYCHYVHYASASTVLPAFGVDAWGQGTTVTVSS VL: DIVMTQSPLSLPVTPGEPASISCQASQELVHMNRNTYLHWYQQKPGQAPRLLIYKVSNRFPGVPDRFSGSGSGTDFTLKISRVEAEDVGVYYCAQGTSVPFTFGQGTKLEIK
1.2	H183/L072 VH V63P (antibody, name in Kabat numbering, V domains shown) VH: QVQLVESGGGLVQPGRSLRLSCAASGFTFSNAWMHWVRQAPGKGLEWVAQIKDKGNAYAAYYAPSPKGRFTISRDDSKNSIYLQMNSLKTEDTAVYYCHYVHYASASTVLPAFGVDAWGQGTTVTVSS VL: DIVMTQSPLSLPVTPGEPASISCQASQELVHMNRNTYLHWYQQKPGQAPRLLIYKVSNRFPGVPDRFSGSGSGTDFTLKISRVEAEDVGVYYCAQGTSVPFTFGQGTKLEIK
1.6	H183/L072 VH V63L (antibody, name in Kabat numbering, V domains shown) VH: QVQLVESGGGLVQPGRSLRLSCAASGFTFSNAWMHWVRQAPGKGLEWVAQIKDKGNAYAAYYAPSLKGRFTISRDDSKNSIYLQMNSLKTEDTAVYYCHYVHYASASTVLPAFGVDAWGQGTTVTVSS VL: DIVMTQSPLSLPVTPGEPASISCQASQELVHMNRNTYLHWYQQKPGQAPRLLIYKVSNRFPGVPDRFSGSGSGTDFTLKISRVEAEDVGVYYCAQGTSVPFTFGQGTKLEIK
